Patent US6956104B2, “Protein Rim2” (JCR Pharmaceuticals Co., Ltd., priority 1999, dated 2005)

Tested on: PC12 cells
Experiment: GH secretion from transfected PC12 cells
Type: cell-based
Conditions: for 8-Br-cAMP-induced, Ca2+-dependent GH secretion: 8-Br-cAMP 1 mM, GH released relative to total cellular GH, n=9; for forskolin-induced GH secretion relative to wild-type cAMP-GEFII: high K+, 15-min incubation, increment above basal, wild-type = 100%
Method: GH secretion from transfected PC12 cells was performed as described in K. Korake et al., J. Biol. Chem., 272:29407(1997). Expression plasmid vectors (pSR α) for wild-type cAMP-GEFII, mutant cAMP-GEFII (T810A), and the double mutant cAMP-GEFII (G114E, G422D) were prepared. As a control, β-galactosidase (β-gal) was used. […] were transfected with GH expression vector (pXGH5: Nichols Institute) plus each vector described above, using LipofectAMINE.
PC12 cell were incubated with a low […] (4.7 mM) or high K^+ (60 mM) solution, in the presence or absence of forskolin (50 μM) or 8-bromoadenosine 3′,5′ cyclic monophosphate (8-Br-cAMP)(1 mM). Forskolin or 8-Br-cAMP was added 10 min before the incubation with a low or high K^+ solution. In some experiments, the PKA inhibitor H-89 (10 μM) was added 10 min before forskolin stimulation.

## Nc1ncnc2c1nc(Br)n2[C@@H]1O[C@@H]2COP(=O)(O)O[C@H]2[C@H]1O [8-Br-cAMP, 8-bromoadenosine 3′,5′ cyclic monophosphate, reference compound]
cAMP-GEFII-transfectant
  8-Br-cAMP-induced, Ca2+-dependent GH secretion: 34.9±1.3%
Control (β-galactosidase-transfectant)
  8-Br-cAMP-induced, Ca2+-dependent GH secretion: 25.1±1.8%

## O=S(=O)(NCCNC/C=C/c1ccc(Br)cc1)c1cccc2cnccc12 [H-89, reference compound]
H-89 10 μM, cAMP-GEFII-transfected and β-galactosidase-transfected PC12 cells
  effect on high K+-induced GH secretion: reduced

B1: cAMP-GEFII: cAMP sensor protein, GDP/GTP exchange factor II; wild type transfected into PC12 cells (protein)
chain: MVAAHAAHSQSSAEWIACLDKRPLERSSEDVDIIFTRLKGVKAFEKFHPNLLRQICLCGYYENLEKGITLFRQGDIGTNWYAVLAGSLDVKVSETSSHQDAVTICTLGIGTAFGESILDNTPRHATIVTRESSELLRIEQEDFKALWEKYRQYMAGLLAPPYGVMETGSNNDRIPDKENTPLIEPHVPLRPAHTITKVPSEKILRAGKILRIAILSRAPHMIRDRKYHLKTYRQCCVGTELVDWMIQQTSCVHSRTQAVGMWQVLLEDGVLNHVDQERHFQDKYLFYRFLDDEREDAPLPTEEEKKECDEELQDTMLLLSQMGPDAHMRMILRKPPGQRTVDDLEIIYDELLHIKALSHLSTTVKRELAGVLIFESHAKGGTVLFNQGEEGTSWYIILKGSVNVVIYGKGVVCTLHEGDDFGKLALVNDAPRAASIVLREDNCHFLRVDKEDFNRILRDVEANTVRLKEHDQDVLVLEKVPAGNRAANQGNSQPQQKYTVMSGTPEKILEHFLETIRLEPSLNEATDSVLNDFVMMHCVFMPNTQLCPALVAHYHAQPSQGTEQERMDYALNNKRRVIRLVLQWAAMYGDLLQEDDVAMAFLEEFYVSVSDDARMMAAFKEQLPELEKIVKQISEDAKAPQKKHKVLLQQFNTGDERAQKRQPIRGSDEVLFKVYCIDHTYTTIRVPVAASVKEVISAVADKLGSGEGLIIVKMNSGGEKVVLKSNDVSVFTTLTINGRLFACPREQFDSLTPLPEQEGPTTGTVGTFELMSSKDLAYQMTTYDWELFNCVHELELIYHTFGRHNFKKTTANLDLFLRRFNEIQFWVVTEVCLCSQLSKRVQLLKKFIKIAAHCKEYKNLNSFFAIVMGLSNVAVSRLALTWEKLPSKFKKFYAEFESLMDPSRNHRAYRLTAAKLEPPLIPFMPLLIKDMTFTHEGNKTFIDNLVNFEKMRMIANTARTVRYYRSQPFNPDAAQANKNHQDVRSYVRQLNVIDNQRTLSQMSHRLEPRRP
modifications: left off: large carriers
notes: cAMP sensor protein, GDP/GTP exchange factor II; wild type transfected into PC12 cells
H-89 10 μM, forskolin 50 μM
  forskolin-induced, Ca2+-dependent GH secretion with PKA inhibitor H-89, versus control cells: significantly higher
Compared to the control transfectant
  effect on Ca2+-dependent (60 mM K+) secretion of cotransfected GH: did not alter
Forskolin 50 μM
  effect on forskolin-induced, Ca2+-dependent GH secretion: significantly enhanced

B2: cAMP-GEFII (T810A): mutant cAMP-GEFII in which a potential PKA phosphorylation site is disrupted (protein, UniProt Q9EQZ6 1-1011, looked up, variant T810A)
Rap guanine nucleotide …: MVAAHAAHSQSSAEWIACLDKRPLERSSEDVDIIFTRLKGVKAFEKFHPNLLRQICLCGYYENLEKGITLFRQGDIGTNWYAVLAGSLDVKVSETSSHQDAVTICTLGIGTAFGESILDNTPRHATIVTRESSELLRIEQEDFKALWEKYRQYMAGLLAPPYGVMETGSNNDRIPDKENTPLIEPHVPLRPAHTITKVPSEKILRAGKILRIAILSRAPHMIRDRKYHLKTYRQCCVGTELVDWMIQQTSCVHSRTQAVGMWQVLLEDGVLNHVDQERHFQDKYLFYRFLDDEREDAPLPTEEEKKECDEELQDTMLLLSQMGPDAHMRMILRKPPGQRTVDDLEIIYDELLHIKALSHLSTTVKRELAGVLIFESHAKGGTVLFNQGEEGTSWYIILKGSVNVVIYGKGVVCTLHEGDDFGKLALVNDAPRAASIVLREDNCHFLRVDKEDFNRILRDVEANTVRLKEHDQDVLVLEKVPAGNRAANQGNSQPQQKYTVMSGTPEKILEHFLETIRLEPSLNEATDSVLNDFVMMHCVFMPNTQLCPALVAHYHAQPSQGTEQERMDYALNNKRRVIRLVLQWAAMYGDLLQEDDVAMAFLEEFYVSVSDDARMMAAFKEQLPELEKIVKQISEDAKAPQKKHKVLLQQFNTGDERAQKRQPIRGSDEVLFKVYCIDHTYTTIRVPVAASVKEVISAVADKLGSGEGLIIVKMNSGGEKVVLKSNDVSVFTTLTINGRLFACPREQFDSLTPLPEQEGPTTGTVGTFELMSSKDLAYQMTTYDWELFNCVHELELIYHTFGRHNFKKTAANLDLFLRRFNEIQFWVVTEVCLCSQLSKRVQLLKKFIKIAAHCKEYKNLNSFFAIVMGLSNVAVSRLALTWEKLPSKFKKFYAEFESLMDPSRNHRAYRLTAAKLEPPLIPFMPLLIKDMTFTHEGNKTFIDNLVNFEKMRMIANTARTVRYYRSQPFNPDAAQANKNHQDVRSYVRQLNVIDNQRTLSQMSHRLEPRRP
Forskolin 50 μM
  forskolin-induced GH secretion relative to wild-type cAMP-GEFII: not affected

B3: cAMP-GEFII (G114E, G422D): double mutant cAMP-GEFII in which both cAMP binding sites are disrupted (protein, UniProt Q9EQZ6 1-1011, looked up, variant G114E G422D)
Rap guanine nucleotide …: MVAAHAAHSQSSAEWIACLDKRPLERSSEDVDIIFTRLKGVKAFEKFHPNLLRQICLCGYYENLEKGITLFRQGDIGTNWYAVLAGSLDVKVSETSSHQDAVTICTLGIGTAFEESILDNTPRHATIVTRESSELLRIEQEDFKALWEKYRQYMAGLLAPPYGVMETGSNNDRIPDKENTPLIEPHVPLRPAHTITKVPSEKILRAGKILRIAILSRAPHMIRDRKYHLKTYRQCCVGTELVDWMIQQTSCVHSRTQAVGMWQVLLEDGVLNHVDQERHFQDKYLFYRFLDDEREDAPLPTEEEKKECDEELQDTMLLLSQMGPDAHMRMILRKPPGQRTVDDLEIIYDELLHIKALSHLSTTVKRELAGVLIFESHAKGGTVLFNQGEEGTSWYIILKGSVNVVIYGKGVVCTLHEGDDFDKLALVNDAPRAASIVLREDNCHFLRVDKEDFNRILRDVEANTVRLKEHDQDVLVLEKVPAGNRAANQGNSQPQQKYTVMSGTPEKILEHFLETIRLEPSLNEATDSVLNDFVMMHCVFMPNTQLCPALVAHYHAQPSQGTEQERMDYALNNKRRVIRLVLQWAAMYGDLLQEDDVAMAFLEEFYVSVSDDARMMAAFKEQLPELEKIVKQISEDAKAPQKKHKVLLQQFNTGDERAQKRQPIRGSDEVLFKVYCIDHTYTTIRVPVAASVKEVISAVADKLGSGEGLIIVKMNSGGEKVVLKSNDVSVFTTLTINGRLFACPREQFDSLTPLPEQEGPTTGTVGTFELMSSKDLAYQMTTYDWELFNCVHELELIYHTFGRHNFKKTTANLDLFLRRFNEIQFWVVTEVCLCSQLSKRVQLLKKFIKIAAHCKEYKNLNSFFAIVMGLSNVAVSRLALTWEKLPSKFKKFYAEFESLMDPSRNHRAYRLTAAKLEPPLIPFMPLLIKDMTFTHEGNKTFIDNLVNFEKMRMIANTARTVRYYRSQPFNPDAAQANKNHQDVRSYVRQLNVIDNQRTLSQMSHRLEPRRP
Forskolin 50 μM
  forskolin-induced GH secretion relative to wild-type cAMP-GEFII: ~40%
